In the nanobody polyreactivity screen of Harvey et al. (2022):

Assay: yeast display, Sf9 membrane polyspecificity reagent, FACS + sequencing; frameworks hold sequencing errors
Procedure, shortened: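 A synthetic nanobody library was expressed on Saccharomyces cerevisiae BJ5465 by galactose induction for 36–48 hours. The library was stained for 1 hour at 4 °C with 10% biotinylated, detergent-solubilized Sf9 membrane reagent and enriched with streptavidin microbeads before FACS. Low and high (top ~1%) gates were set on anti-HA fluorescence for expression and streptavidin fluorescence for reagent binding, and each polyreactivity label reflects the gate of origin.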

| Sequence | polyreactivity (PSR sort gate) |
| --- | --- |
| QVQLVESGGGLVQAGGSLRLSCAASGFTFGIYAMGWYRQAPGKERELVAAITSGGITKYADSVKGRFTISRDNAKNTVYLQMNSLKPEDTAVYYCAATGYRQSYDSTWYRYDYWGQGTQVTVSS | low polyreactivity |
| QVQLVESGGGLVQAGGSLRLSCAASGFTFGLYVMGWYRQAPGKERELVAVISRSGGGTYYADSVKGRFTISRDNAKNTVYLQMNSLKPEDSAVYYCAKPFSYITGWYNYWGQGTQVTVSS | high polyreactivity |
| QVQLVESGGGLVQAGGSLRLSCAASGFTFGPYAMGWSRQAPGKEREFVAAITSSGGSTYYADSVKGRFTISRDNAKNTVYLQMNSLKPEDTAVYYCNARSRGYVGKTPRRYYYWGQGTQVTVSS | high polyreactivity |
| QVQLVESGGGLVQAGGSLRLSCAASGFTFGPYDLGWYRQAPGKERELVAAITDSSGSTHYADSVKGRFTISRDNAKNTVYLQMNSLKPEDTAVYYCAADDSSRTTYDYWGQGTQVTVSS | low polyreactivity |
| QVQLVESGGGLVQAGGSLRLSCAASGFTFGPYDMGWYRQAPGTERELVAAITDSSGSTHYADSVKGRFTLSRDNAKNTFYLQMNSLKPEDTAVYYCAADVSSRTTYDYWGQGTQVTVSS | low polyreactivity |
| QVQLVESGGGLVQAGGSLRLSCAASGFTFGRNAMGWYRQAPAKERELVAAISYDGTRTYYADSVKGRFTISRDKAKNTVYLQMNSLKPEDTAVYYGNAVWVRGFYRVYDYWGQGTQVTVSS | high polyreactivity |
| QVQLVESGGGLVQAGGSLRLSCAASGFTFGRNAMGWYRQAPGKERELVAAISSSGGTTYYADSVKGRFTISRDNAKNTVYLQMNSLKPEDTAVYSCAARRWYQSRRGGFDYWGQGTQVTVSS | high polyreactivity |
| QVQLVESGGGLVQAGGSLRLSCAASGFTFGRYAMGGYRQAPGKERELVAAITSRGGSTYYADSVKGRFTISRDNAKNTVYLQMNSLKPEDTAVYYCAAATNTGPRGYEYWGQGTQVTVSS | high polyreactivity |
| QVQLVESGGGLVQAGGSLRLSCAASGFTFGRYAMGWYRQAPGKERELVAAISRGGSSTYYADSVKGRFTISRDNAKNTVYLQMNSLKPEDNAVYYCNKVIIWARFDYWGQGTQVTVSS | high polyreactivity |
| QVQLVESGGGLVQAGGSLRLSCAASGFTFGRYAMGWYRQAPGKERELVAAISTSGGRTYYADSVKGRFTISRDNAKNTVYLQMNSLKPEDTAVYYCAAEQRRFTGYDYWGQGTQVTVSS | high polyreactivity |
| QVQLVESGGGLVQAGGSLRLSCAASGFTFGRYAMGWYRQAPGKERELVAAISWSGTRTYYADSVKGRFTISRDNAKNTVYLQLNSLKPEDTADYYCAAYPPPWAQTGFYTYDYWGQGTQVTVSS | high polyreactivity |
| QVQLVESGGGLVQAGGSLRLSCAASGFTFGRYAMGWYRQAPGKERELVAAITWSGGSTYYADSVKGRFTISRDNAKNTVYLQMNSLKPEDTAVYYCNRLSNNREYDYWGQGTQVTVSS | high polyreactivity |
| QVQLVESGGGLVQAGGSLRLSCAASGFTFGRYAMGWYRQAPGKVRELVAAINWSGGSTYYADSVKGRFTISRDNAKNTVYLQMNSLKPEDPAVYYCNKGVSRSSVRGDYWGQGTQVTVSS | high polyreactivity |
| QVQLVESGGGLVQAGGSLRLSCAASGFTFGSNAMGWYRQAPGKEREFVAAISRSGSRTYYADSVKGRFTISRDNAKNTVYLQMNSLKPEDTAVYYCNARSGEISQRHMDYWGQGTQVTVSS | high polyreactivity |
| QVQLVESGGGLVQAGGSLRLSCAASGFTFGSNAMGWYRQAPGKERELVAAISSRGGRTYYADSVKGRFTISRDNAKNTVYLQMNSLKPEDTAVYYCAKYRSYRGPYNYWGQGTQVTVSS | high polyreactivity |
| QVQLVESGGGLVQAGGSLRLSCAASGFTFGSNAMGWYRQAPGKERELVATISRRGGRTYYADSVKGRFTISRDNAKNTVYLQMNSLKPEDTAVYYCAADRSRPGYDYWGQGTQVTVSS | high polyreactivity |
| QVQLVESGGGLVQAGGSLRLSCAASGFTFGSNTMGWYRQAPRKERELVAAITGRGGSTYYADSVKGRFTSSRDNAKNTVYLQMTSLKPEDTAVYYCAARTYPTGASFDYWGQGTQVTVSS | high polyreactivity |
| QVQLVESGGGLVQAGGSLRLSCAASGFTFGSNVMGWYRQAPGKERELVAAIRGRGGSTYYADSVKGRFTISRDNAKNTVYLQMNSLKPEDTAVYYCNAVYSYYYRWYYDFDYWGQGTQVTVSS | high polyreactivity |
| QVQLVESGGGLVQAGGSLRLSCAASGFTFGSYAMGWSRQAPGKERELVAVITRSGRTNYADSVKGRFTISRDNAKNTVYLQMNSLKPEDTAVYYCNADDVDDEVSPDLTEMDYWGQGTQVTVSS | low polyreactivity |
| QVQLVESGGGLVQAGGSLRLSCAASGFTFGSYAMGWYRQAPGKERELVAVITRSGRTNYADSVKGRFTISRDNAKNTVYLQMNSLKPEDTEVYYCNADDVDDEVSPDLTEMDYWGQGTQVTVSS | low polyreactivity |

| Sequence | polyreactivity (PSR sort gate) |
| --- | --- |
| QVQLVESGGGLVQAGGSLRLSCAASGFTFGTYAMGWYRQAPGKERELVARITSGGRTNYADSVKGRFTISRDNAKNTVYLQMNSLKPEDTAVFYCNAVNGYYWGSRFDYWGQGTQVTVSS | high polyreactivity |
| QVQLVESGGGLVQAGGSLRLSCAASGFTFGTYDMGWYRQAPGKERELVAAIDWGGGSTYYADSVKGRFTISRDNAKNTFYLQMNSLKTEDTAFYYCAADGPGDYLTLEWYWFTYYYWGQGTQVTVTS | high polyreactivity |
| QVQLVESGGGLVQAGGSLRLSCAASGFTFGTYDMGWYRQAPGKERELVAAISTSGGSTYYADSVKGRFTISRDNAKNTVYLQMNSLKPEDTAVYYCAARIVYYGGYGYWGQGTQVTVSS | high polyreactivity |
| QVQLVESGGGLVQAGGSLRLSCAASGFTFGVNAMGWYRQAPGKERELVAVITSGGNTYYADSVKGRFTISRDNAKNTVYLQMNSLKPEDTAVYYCAADLSDTSYATRYQGDYWGQGTQVTVSS | low polyreactivity |
| QVQLVESGGGLVQAGGSLRLSCAASGFTFGVYAMGWYRQAPGKERELVAAISVSGGRTYYADSVKGRFTISRDNAKNTVYLQMNSLKPEDTAVYYCAADLGLKTSSRRTSMYYWGQGTQVTVSS | high polyreactivity |
| QVQLVESGGGLVQAGGSLRLSCAASGFTFGVYAMGWYRQAPGKERELVAAITRSGSSTYYADSVKGRFTISRDNAKNTVYLQMNSLKPEDTAVYYCNKYKYVSAVQWKVAGDYWGQGTQVTVSS | low polyreactivity |
| QVQLVESGGGLVQAGGSLRLSCAASGFTFGWYAMGWYRPAPGKERELVAAISSTGGRTYYADSVKGRFTISRDNAKNTVYLQMNSLKPEDTAVYYCAAAYSYGTEYGYWGQGTQVTVSS | high polyreactivity |
| QVQLVESGGGLVQAGGSLRLSCAASGFTFGYNAMGWYRHAPGKERELVAAISYRDGSTYYADSVKGRFTISRDNAKNTVYLQMNSLKPEDTAVYYCAAEVWYPGWGYDYWGQGTQVTVSS | high polyreactivity |
| QVQLVESGGGLVQAGGSLRLSCAASGFTFGYNAMGWYRQAPGKEREFVAAISISTGRTFYADSVKGRFTISRDNAKNTVYLQMNSLKPEDTAFYYCAARGYYPTNVGKYNYWGQGTQVTVSS | high polyreactivity |
| QVQLVESGGGLVQAGGSLRLSCAASGFTFGYNAMGWYRQAPGKEREMVAAINYGGSTDYADSVKGRFTISRDYAKNTVYLQMNSLKPEDTAVYYCNIADRYAYWVRGRHRYGYWGQGTQVTVSS | low polyreactivity |
| QVQLVESGGGLVQAGGSLRLSCAASGFTFGYNAMGWYRQTPGKERELVAVITQSGGRTYYADSVKGRFTISRDNAKNTVYLQMNSLKPEDTAVYYCAARYRLPPYYYWGQGTQVTVSS | high polyreactivity |
| QVQLVESGGGLVQAGGSLRLSCAASGFTFGYYAMGRYRQAPGKERELVATITSSGASTYADSVKGRFTISRDNAKNTVYLLMNSLKPEDTAVYYCAADRLPSYWSWYGYDYWGQGTQVTVSS | high polyreactivity |
| QVQLVESGGGLVQAGGSLRLSCAASGFTFGYYAMGWYRQAPGKERELVAAINWSGDSTYYADSVKGRFTISRDNAKNTVYLQMNSLKPEDTAVYYCNAVIEDLPYDYWGQGTQVTVSS | low polyreactivity |
| QVQLVESGGGLVQAGGSLRLSCAASGFTFGYYAMGWYRQAPGKERELVAAITWNGGSTYYADSVKGRFTISRDYAKNTVYLQMNSLKPEDTAVYYCAAVYKYIQRYDYWGQGTQVTVSS | high polyreactivity |
| QVQLVESGGGLVQAGGSLRLSCAASGFTFGYYAMGWYRQAPGKERELVARISRRGGTTYYADSVKGRFTISRDNAKTTVYLQMNSLKPEDTAVYYCATDGVWNRINRYDYWGQGTQVTVSS | high polyreactivity |
| QVQLVESGGGLVQAGGSLRLSCAASGFTFGYYAMGWYRQAPGKERELVDAISSSGGSTYYSDSVKGSFTISRDNAKNTVYLQMNSLKPEDTAVYYCNRGTTVRGPGYTNGRDITRYDYWGQGTQVTVSS | high polyreactivity |
| QVQLVESGGGLVQAGGSLRLSCAASGFTFGYYTMGWYRPEAGKEWELVAAISNSGGRTYYADSVKGRFTISLDYAKNTVYFQMNSLKPEDTAVYYCAKAYRTPGYDSWGQGTQVTVSS | high polyreactivity |
| QVQLVESGGGLVQAGGSLRLSCAASGFTFGYYTMGWYRQAPGKERELVAAISWSGDSTYYADSVKGRFTISRDNAKNNVYLQMNSLKPEDTAVYYCAAAVYGSWPDYDYWGQGTQVTVSS | low polyreactivity |
| QVQLVESGGGLVQAGGSLRLSCAASGFTFHNNVMGWYRQAPGKERELVATISKSGGSTYYADSVKGRFTISRDNAKNTVYLQMNSLKPEDTAVYYCAAETPTHDEWGQGTQVTVSS | high polyreactivity |
| QVQLVESGGGLVQAGGSLRLSCAASGFTFHNYAMGWYRQAPGKEREFVAAITRNTASTYYADSVKGRFTISRDNAKTTVYLQMISLKPEATAVYYCAATDKKHRTAYDSWGQRTQVTVSS | low polyreactivity |
